For test [1], the target named is T1, human Trop-2 on the surface of cells (CHO/Trop-2 cells; BxPC-3 cells; NCI-N87 cells) (human, UniProt P09758 27-323).
T1 construct: whole, on cells; One molecule for all cell lines; the cell line is named under assay or readout; also called Trop-2 on the surface of CHO cells; recombinant human Trop-2 protein on the surface of CHO cells
T1 sequence (looked up): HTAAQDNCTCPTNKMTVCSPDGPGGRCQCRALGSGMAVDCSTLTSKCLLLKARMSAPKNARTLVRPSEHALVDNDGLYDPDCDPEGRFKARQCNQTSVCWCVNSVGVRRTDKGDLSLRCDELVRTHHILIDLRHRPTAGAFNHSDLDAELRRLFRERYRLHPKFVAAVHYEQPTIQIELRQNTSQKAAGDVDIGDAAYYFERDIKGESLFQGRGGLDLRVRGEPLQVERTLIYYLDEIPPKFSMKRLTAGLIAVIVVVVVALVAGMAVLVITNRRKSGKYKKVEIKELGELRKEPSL
Nature of the test: FACS, CHO/Trop-2 cells. The method, then:
Suspensions of CHO cells recombinantly expressing human Trop-2 (CHO/Trop-2 cells) were incubated with chimeric antibodies ch3-11, ch4-3, ch17-1, ch11-4, and ch23-12 (dilutions at concentrations of 30 μg/ml and 10 μg/ml, and serial dilutions of 9 concentrations obtained through 3-fold serially diluting a solution with an initial concentration of 5 μg/ml, 11 concentrations in total) for 30 min at 37° C. Controls as follows were set: (1) Positive Control (PC): control antibody Sacituzumab; (2) Negative Control (NC): IgG1 isotype control antibody NC-IgG1. The cells were washed 3 times with PBS, and 1:100 dilution of goat anti-human IgG-FITC (Cat.: F9512, Sigma) was added into the cell which then were incubated for 30 min. Then the cells were washed 3 times with PBS again, and the Mean Fluorescence Intensity (MFI) of the cells was measured by a flow cytometer (model B49007AD, SNAW31211, BECKMAN COULTER) to detect binding ability of the chimeric antibodies to human Trop-2 on the surface of CHO cells.

Test [2] concerns the target T1, human Trop-2 on the surface of cells …. The test can be described thus: cell-based or functional assay.
Test [3] has the same target. Nature of the test: cell-based or functional assay. This is another data set of the same source.
Test [4] deals with T2, recombinant human Trop-2-his protein (ACCESSION NO.: NP_002344.2, AA 1-274) (human, UniProt P09758 27-274).
T2 construct: range 27-274; also called recombinant human Trop-2 protein; recombinant human Trop-2 extracellular domain; not shown: his tag
T2 sequence (looked up): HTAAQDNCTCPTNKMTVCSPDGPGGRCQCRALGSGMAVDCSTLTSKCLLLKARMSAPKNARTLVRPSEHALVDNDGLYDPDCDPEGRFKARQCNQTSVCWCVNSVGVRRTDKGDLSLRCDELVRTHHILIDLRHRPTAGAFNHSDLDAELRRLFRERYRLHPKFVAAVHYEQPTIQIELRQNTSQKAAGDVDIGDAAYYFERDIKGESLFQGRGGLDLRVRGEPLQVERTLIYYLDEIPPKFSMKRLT
Nature of the test: ELISA, coated human Trop-2-his 1 µg/ml. Here is the method:
Washed with PBS 3 times, the plates were blocked with the added 5% BSA PBS at 37° C. for 60 min, and then washed 3 times with PBST. Different concentrations of h23-12 (serial dilutions of 14 concentrations obtained through 3-fold serially diluting a solution with an initial concentration of 10 μg/ml), h4-3 (serial dilutions of 12 concentrations obtained through 3-fold serially diluting a solution with an initial concentration of 3 μg/ml), and Sacituzumab (serial dilutions of 12 concentrations obtained through 3-fold serially diluting a solution with an initial concentration of 3 μg/ml) were added into the plates, with each concentration provided in a parallel well. The plates were incubated at 37° C. for 60 min, and then were washed 4 times with PBST. 1:5000 dilution of H1RP-anti-human Fc (Cat.: 109-035-098, Jackson ImmunoResearch) was added into the plates for incubation at 37° C. for 30 min. Afterwards, the plates were washed with PBST 4 times, and TMB substrate was added for color development at 37° C. for 10 min. Then 2M HCl was added to stop reaction; and absorbances at 450 nm and at 630 nm (as reference wavelength) were read, and A450 nm-630 nm values of the wells in the plates were recorded.
(In general: In an ELISA, binding on a coated surface is turned into a signal by an enzyme label.)

Test [5] addresses T2, recombinant human Trop-2-his protein …. Nature of the test: BLI, antibody on AHC sensor, Trop-2-his 60 nM. A digest of the protocol:
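Octet BLI: humanized antibodies at 4 μg/ml in PBS captured 120 s on anti-human IgG Fc (AHC) biosensors, then exposed to 60 nM Trop-2-his (AA 1-274) for 100 s association and 300 s dissociation. Blank-subtracted data fitted to 1:1 Langmuir model for kinetic constants.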
On the technique in general: Biolayer interferometry detects binding as a change in optical thickness at a sensor tip.

The target is the same in test [6]. Nature of the test: BLI, antibody on AHC sensor, Trop-2-his 60 nM. A digest of the protocol: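 Humanized antibodies at 4 μg/ml in PBS captured via Fc on anti-human IgG Fc (AHC) biosensors for 120 s; 60 nM Trop-2-his (AA 1-274) as analyte, 100 s association, 300 s dissociation. Blank-subtracted responses fitted to 1:1 Langmuir model for kinetic constants.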
This is another data set of the same source.

Test [7] has the same target. The test can be described thus: BLI, antibody on AHC sensor, Trop-2-his 60 nM. The method, then: 5-6 days after cell transfection, culture supernatants were purified through ProA affinity chromatography column to obtain different humanized antibodies. Affinities of the obtained antibodies were determined by an assay including capturing Fc fragments of the antibodies with anti-human IgG Fc capture (AHC) biosensors using Octet QKe system instrument from Fortebio. For the assay, each of the humanized antibodies and control antibody Sacituzumab was diluted to 4 μg/ml in PBS, and was allowed to flow through the surface of an AHC biosensor (Cat.: 18-0015, PALL) for 120 s. Recombinant human Trop-2-his protein (ACCESSION NO.: NP_002344.2, AA 1-274) was used as a mobile phase, and its concentration was 60 nM. The binding time was 100 s and the dissociation time was 300 s. When the assay was finished, data from which the response values of blank control had been deducted were fitted to a 1:1 Langmuir binding model using software, and then kinetic constants for antigen-antibody binding were calculated.
Affinities of the antibodies obtained from the combinations of mutants of murine antibody 11-4, chimeric antibody ch11-4 and control antibody Sacituzumab to recombinant human Trop-2-his protein were determined by ForteBio (Table 11).
This is another data set of the same source.

Read-outs that look alike come from different tables or passages of the source.

B1: Sacituzumab (antibody, human IgG1, kappa, V domains shown)
VH: QVQLQQSGSELKKPGASVKVSCKASGYTFTNYGMNWVKQAPGQGLKWMGWINTYTGEPTYTDDFKGRFAFSLDTSVSTAYLQISSLKADDTAVYFCARGGFGSSYWYFDVWGQGSLVTVSS
VL: DIQLTQSPSSLSASVGDRVSITCKASQDVSIAVAWYQQKPGKAPKLLIYSASYRYTGVPDRFSGSGSGTDFTLTISSLQPEDFAVYYCQQHYITPLTFGAGTKVEIKR
notes: expressed in HEK293; also called control antibody Sacituzumab; Saituzumab
Take B1: the EC50 in test [1] turned out to be 2.32 nM; in test [4] it was 0.0703 nM. In test [2], the “Internalization percentage (%), 1 h, BxPC-3 cells, FACS” value was found to be 17.2%. In test [2], the “Internalization percentage (%), 3 h, BxPC-3 cells, FACS” value is 21.8%. For the same molecule, the “Internalization percentage (%), 5 h, BxPC-3 cells, FACS” value in test [2] was 20.4%. Moreover, in test [3], the “Internalization percentage, 1 h, BXPC-3 cells, FACS” value is 37.4%. Besides, the values for the Kd in test [5], in test [6] and in test [7] were 0.723 nM, 0.723 nM and 0.784 nM, respectively.

B2: h23-12-25 (antibody, human IgG1, kappa, V domains shown)
VH: QVQLVQSGAEVKKPGASVKVSCKASGYTFTSYWMHWVRQAPGQGLEWMGEITPSDNYGSYNQKFKGRVTITRDTSTSTAYMELSSLRSEDTAVYYCARGHGNYVSFDYWGQGTLVTVSS
VL: DIQMTQSPSSLSASVGDRVTITCRASQDISNYLNWYQQKPGKAPKLLIYYTSRLESGVPSRFSGSGSGTDFTLTISSLQPEDFATYFCQQGYTLPPYTFGQGTKLEIKR
notes: also called h32-12
Take B2: the “Internalization percentage, 1 h, BXPC-3 cells, FACS” value in test [3] was found to be 32.4%. Further, the EC50 in test [4] is 0.0473 nM. The Kd in test [5] is 0.502 nM.

As usually defined, the EC50 is the concentration giving half of the maximal effect. In general, Kd refers to the free concentration of one partner at which half of the binding sites on the other are occupied at equilibrium, for simple one-to-one binding.

The values are drawn from patent publication US20240092930A1 (MABWELL SHANGHAI BIOSCIENCE, published 2024).
